Laboratory results taken from article doi:10.1101/462036 (bioRxiv, 2018).

Molecular target: the molecule itself
Test: SEC

B1: RIG-5 IG1 (purified, hexahistidine tag) (domain or fragment)
chain: GAPPTIQQPSMSSAVALLGQDVDFTCIVNDLGSHMVAFVKADSPPRLLSFDEKVFRRRNKYELKPRIGDLHNEWVLTIKNVQESDRGNYSCQINTEPITLSTGELDVKVP
modifications: one N-linked glycan per monomer
stoichiometry N: 2
